US20090271163A1 (published 2009)

T1: heavy chain of B-domain deleted human Factor VIII (A1-A2 domains) (human, UniProt P00451 20-1667, oligosaccharide observed linked to Asn 239)
T1 construct: Residues 17-43, 334-376 and 714-754 were not modeled; also called A1-a1-A2-a2
T1 sequence (heavy): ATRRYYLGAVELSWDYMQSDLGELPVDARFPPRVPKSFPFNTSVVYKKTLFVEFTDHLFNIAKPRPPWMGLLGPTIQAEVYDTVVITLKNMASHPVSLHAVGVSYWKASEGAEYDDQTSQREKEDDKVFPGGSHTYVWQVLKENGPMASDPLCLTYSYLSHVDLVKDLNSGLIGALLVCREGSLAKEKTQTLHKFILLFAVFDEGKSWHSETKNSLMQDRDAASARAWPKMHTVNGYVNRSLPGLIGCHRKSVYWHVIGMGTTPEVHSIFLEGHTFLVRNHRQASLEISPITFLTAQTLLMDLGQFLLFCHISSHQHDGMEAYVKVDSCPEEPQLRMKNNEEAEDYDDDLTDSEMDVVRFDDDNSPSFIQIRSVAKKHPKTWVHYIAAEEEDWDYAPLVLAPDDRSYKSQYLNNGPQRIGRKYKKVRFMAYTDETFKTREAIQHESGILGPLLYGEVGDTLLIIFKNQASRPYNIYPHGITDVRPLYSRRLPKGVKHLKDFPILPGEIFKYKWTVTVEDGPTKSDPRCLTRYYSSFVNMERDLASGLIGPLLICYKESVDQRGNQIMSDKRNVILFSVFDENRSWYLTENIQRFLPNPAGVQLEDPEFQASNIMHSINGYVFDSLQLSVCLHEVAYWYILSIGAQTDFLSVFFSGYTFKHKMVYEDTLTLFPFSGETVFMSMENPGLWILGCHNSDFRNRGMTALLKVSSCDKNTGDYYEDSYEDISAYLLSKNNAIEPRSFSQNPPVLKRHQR

B1: light chain of B-domain deleted human Factor VIII (A3-C1-C2 domains) (other)
light: EITRTTLQSDQEEIDYDDTISVEMKKEDFDIYDEDENQSPRSFQKKTRHYFIAAVERLWDYGMSSSPHVLRNRAQSGSVPQFKKVVFQEFTDGSFTQPLYRGELNEHLGLLGPYIRAEVEDNIMVTFRNQASRPYSFYSSLISYEEDQRQGAEPRKNFVKPNETKTYFWKVQHHMAPTKDEFDCKAWAYFSDVDLEKDVHSGLIGPLLVCHTNTLNPAHGRQVTVQEFALFLTIFDETKSWYFTENMERNCRAPCNIQMEDPTFKENYRFHAINGYIMDTLPGLVMAQDQRIRWYLLSMGSNENIHSIHFSGHVFTVRKKEEYKMALYNLYPGVFETVEMLPSKAGIWRVECLIGEHLHAGMSTLFLVYSNKCQTPLGMASGHIRDFQITASGQYGQWAPKLARLHYSGSINAWSTKEPFSWIKVDLLAPMIIHGIKTQGARQKFSSLYISQFIIMYSLDGKKWQTYRGNSTGTLMVFFGNVDSSGIKHNIFNPPIIARYIRLHPTHYSIRSTLRMELMGCDLNSCSMPLGMESKAISDAQITASSYFTNMFATWSPSKARLHLQGRSNAWRPQVNNPKEWLQVDFQKTMKVTGVTTQGVKSLLTSMYVKEFLISSSQDGHQWTLFFQNGKVKVFQGNQDSFTPVVNSLDPPLLTRYLRIHPQSWVHQIALRMEVLGCEAQDLY
modifications: oligosaccharides observed linked to Asn 1810 and Asn 2118
notes: Residues 1649-1690 and 1714-1724 were not modeled; also called a3-A3-C1-C2
B2: B-domain deleted human Factor VIII (other)
heavy: T1 sequence (heavy)
light: B1 light
modifications: oligosaccharides observed linked to Asn 1810 and Asn 2118; oligosaccharide observed linked to Asn 239
notes: Expressed in CHO cells and crystallised; heterodimer of heavy and light chain with 2 Cu2+, 1 Ca2+ and three carbohydrate moieties; also called B-domain deleted recombinant Factor VIII (Wyeth); B domain-deleted FVIII

Columns and labels:
[1] = biological target: T1, heavy chain of B-domain deleted human …; assay: X-ray crystal structure
Excerpt: X-ray diffraction data of Factor VIII crystals were collected at the NE-CAT synchrotron beamline ID-24 of the Advanced Photon Source (APS) at Argonne National Laboratory. All xray data were processed using program HKL2000 (Otwinowski, Z. & Minor, W. (1997) in Methods Enzymol (Academic Press, New York), Vol. 276, pp. 307-326) (Table 1).
For structural determination using the molecular replacement method, a homology structure model of Factor VIII was constructed from the known primary sequence of Factor VIII (McCoy, A. J. (2007) Acta Crystallogr D Biol Crystallogr 63, 32-41). Using the template structures of Factor Vai (PDBID: […]) (Sandberg, H., Almstedt, A., Brandt, J., Castro, V. M., Gray, E., Holmquist, L., Lewin, M., Oswaldsson, U., Mikaelsson, M., Jankowski, M. A., Bond, M. & Scoble, H. A. (2001) Semin Hematol 38, 4-12) and ceruloplasmin (PDBID: 1KCW) (Adams, T. E., Hockin, M. F., Mann, K. G. & Everse, S. J. (2004) Proc Natl Acad Sci U SA 101, 8918-23), the structure of the A1 and A2 domains of Factor VIII were initially determined with AMoRe (Murshudov, G. N., Vagin, A. A. & Dodson, E. J. (1997) Acta Crystallogr D Biol Crystallogr 53, 240-55) using the structure of the A1 and A2 domains of the homology model. This yielded clear rotation function and translation function solutions. […]

[2] = biological target: the molecule itself; assay: X-ray crystal structure, crystal contact

Binder | binding result [1] | binding result [2]
B1 | binds | 
B2 |  | binds
